9 sequences from the supplement of paper PMC11246515 can be followed below.

± gives the standard deviation of the averaged measurements.

The series is described as follows: total protein half-life in vivo (active degradation + dilution); higher = more stable protein.
[1] abbreviates: E. coli NCM3722 delta-clpP delta-lon delta-hslV, growth: N-lim chemostat, doubling time 6 h.
Setting [2] is: E. coli NCM3722 delta-hslV, growth: N-lim chemostat, doubling time 6 h.
[3] abbreviates: E. coli NCM3722 delta-lon, growth: N-lim chemostat, doubling time 6 h.
Where [4] appears, read: E. coli NCM3722 delta-smpB, growth: N-lim chemostat, doubling time 6 h.
Where [5] appears, read: wild type E. coli NCM3722, growth: C-lim chemostat, doubling time 6 h.
Setting [6] is: wild type E. coli NCM3722, growth: C-lim chemostat, doubling time 12 h.
[7] abbreviates: wild type E. coli NCM3722, growth: N-lim chemostat, doubling time 6 h.
Setting [8] is: wild type E. coli NCM3722, growth: N-lim chemostat, doubling time 12 h.
Where [9] appears, read: wild type E. coli NCM3722, growth: P-lim chemostat, doubling time 6 h.
Where [10] appears, read: wild type E. coli NCM3722, growth: P-lim chemostat, doubling time 12 h.
The mark [11] stands for this setting: E. coli NCM3722 delta-clpP, growth: N-lim chemostat, doubling time 6 h.
[12] abbreviates: wild type E. coli NCM3722, growth: C-lim chemostat, doubling time 3 h.

On to “MSNQFGDTRIDDDLTLLSETLEEVLRSSGDPADQKYVELKARAEKALDDVKKRVSQASDSYYYRAKQAVYRADDYVHEKPWQGIGVGAAVGLVLGLLLARR [P0AEH5]”, for which the “total protein half-life in vivo” value under setting [1] worked out at 6.419 ± 0.022 h; the “total protein half-life in vivo” value under setting [2] turned out to be 6.88 ± 0.34 h; the “total protein half-life in vivo” value under setting [3] is greater than 8 h; the “total protein half-life in vivo” value under setting [4] is 5.64 ± 0.42 h; the “total protein half-life in vivo” value under setting [5] came out at 6.46 ± 0.78 h; the “total protein half-life in vivo” value under setting [6] worked out at 10.1 ± 0.52 h. Further, the “total protein half-life in vivo” value is 5.99 ± 0.7 h under setting [7], 14.8 ± 0.89 h under setting [8], 5.16 ± 1.5 h under setting [9] and 12.6 ± 0.4 h under setting [10].

“MSRMAEQQLYIHGGYTSATSGRTFETINPANGNVLATVQAAGREDVDRAVKSAQQGQKIWASMTAMERSRILRRAVDILRERNDELAKLETLDTGKAYSETSTVDIVTGADVLEYYAGLIPALEGSQIPLRETSFVYTRREPLGVVAGIGAWNYPIQIALWKSAPALAAGNAMIFKPSEVTPLTALKLAEIYSEAGLPDGVFNVLPGVGAETGQYLTEHPGIAKVSFTGGVASGKKVMANSAASSLKEVTMELGGKSPLIVFDDADLDLAADIAMMANFFSSGQVCTNGTRVFVPAKCKAAFEQKILARVERIRAGDVFDPQTNFGPLVSFPHRDNVLRYIAKGKEEGARVLCGGDVLKGDGFDNGAWVAPTVFTDCSDDMTIVREEIFGPVMSILTYESEDEVIRRANDTDYGLAAGIVTADLNRAHRVIHQLEAGICWINTWGESPAEMPVGGYKHSGIGRENGVMTLQSYTQVKSIQVEMAKFQSIF”: the “total protein half-life in vivo” value reads like this: under setting [1], 5.11 ± 0.25 h; under setting [11], 5.45 ± 1.3 h; under setting [2], 5.06 ± 0.11 h; under setting [3], 5.28 ± 0.61 h; under setting [4], 4.486 ± 0.038 h; under setting [5], 5.21 ± 0.24 h. Further, the “total protein half-life in vivo” value by setting is: under setting [6], 11.1 ± 0.13 h; under setting [7], 4.37 ± 0.14 h; under setting [8], 7.63 ± 0.23 h; under setting [9], 6 ± 0.24 h; under setting [10], 11.7 ± 0.46 h.

In the case of “MKFDKPAGENPIDQLKVVGRPHDRIDGPLKTTGTARYAYEWHEEAPNAAYGYIVGSAIAKGRLTALDTDAAQKAPGVLAVITASNAGALGKGDKNTARLLGGPTIEHYHQAIALVVAETFEQARAAASLVQAHYRRNKGAYSLADEKQAVNQPPEDTPDKNVGDFDGAFTSAAVKIDATYTTPDQSHMAMEPHASMAVWDGNKLTLWTSNQMIDWCRTDLAKTLKVPVENVRIISPYIGGGFGGKLFLRSDALLAALAARAVKRPVKVMLPRPSIPNNTTHRPATLQHLRIGADQSGKITAISHESWSGNLPGGTPETAVQQSELLYAGANRHTGLRLATLDLPEGNAMRAPGEAPGLMALEIAIDELAEKAGIDPVEFRILNDTQVDPADPTRCFSRRQLIECLRTGADKFGWKQRNATPGQVRDGEWLVGHGVAAGFRNNLLEKSGARVHLEQNGTVTVETDMTDIGTGSYTILAQTAAEMLGVPLEQVAVHLGDSSFPVSAGSGGQWGANTSTSGVYAACMKLREMIASAVGFDPEQSQFADGKITNGTRSATLHEATAGGRLTAEESIEFGTLSKEYQQSTFAGHFVEVGVHSATGEVRVRRMLAVCAAGRILNPKTARSQVIGAMTMGMGAALMEELAVDDRLGYFVNHDMAGYEVPVHADIPKQEVIFLDDTDPISSPMKAKGVGELGLCGVSAAIANAVYNATGIRVRDYPITLDKLLDKLPDVV”, the “total protein half-life in vivo” value runs as follows: under setting [1], 6.02 ± 1.7 h; under setting [11], 1.06 h; under setting [3], 4.29 ± 0.36 h; under setting [5], 6.1 h.

Consider “MERLKRMSVFAKVVEFGSFTAAARQLQMSVSSISQTVSKLEDELQVKLLNRSTRSIGLTEAGRIYYQGCRRMLHEVQDVHEQLYAFNNTPIGTLRIGCSSTMAQNVLAGLTAKMLKEYPGLSVNLVTGIPAPDLIADGLDVVIRVGALQDSSLFSRRLGAMPMVVCAAKSYLTQYGIPEKPADLSSHSWLEYSVRPDNEFELIAPEGISTRLIPQGRFVTNDPMTLVRWLTAGAGIAYVPLMWVINEINRGELEILLPRYQSDPRPVYALYTEKDKLPLKVQVVINSLTDYFVEVGKLFQEMHGRGKEK”, for which the “total protein half-life in vivo” value is, setting by setting: under setting [1], 5.96 ± 0.4 h; under setting [11], 5.9 ± 0.28 h; under setting [2], 6.51 ± 0.75 h; under setting [3], 6.27 ± 0.31 h; under setting [4], 6.03 ± 0.19 h; under setting [12], 3.47 ± 0.21 h. Also, the “total protein half-life in vivo” value under setting [6] came out at 11 ± 0.14 h; the “total protein half-life in vivo” value under setting [7] stood at 5.69 ± 0.44 h; the “total protein half-life in vivo” value under setting [8] is 13.9 ± 0.74 h; the “total protein half-life in vivo” value under setting [9] was 5.75 ± 0.69 h; the “total protein half-life in vivo” value under setting [10] turned out to be 12.7 ± 0.32 h.

Take “MSSRVLTPDVVGIDALVHDHQTVLAKAEGGVVAVFANNAPAFYAVTPARLAELLALEEKLARPGSDVALDDQLYQEPQAAPVAVPMGKFAMYPDWQPDADFIRLAALWGVALREPVTTEELASFIAYWQAEGKVFHHVQWQQKLARSLQIGRASNGGLPKRDVNTVSEPDSQIPPGFRG [P0A8J2]”: the “total protein half-life in vivo” value was 4.71 ± 0.31 h under setting [1]; 4.26 h under setting [11]; 1.78 ± 0.14 h under setting [2]; 3.49 h under setting [5]; 5.15 ± 0.3 h under setting [6]; 2.93 ± 0.94 h under setting [8]. In addition, the “total protein half-life in vivo” value under setting [9] came to 2.68 ± 0.39 h and the “total protein half-life in vivo” value under setting [10] came out at 5.6 ± 0.28 h.

As for “MALLEICCYSMECALTAQQNGADRVELCAAPKEGGLTPSLGVLKSVRQRVTIPVHPIIRPRGGDFCYSDGEFAAILEDVRTVRELGFPGLVTGVLDVDGNVDMPRMEKIMAAAGPLAVTFHRAFDMCANPLYTLNNLAELGIARVLTSGQKSDALQGLSKIMELIAHRDAPIIMAGAGVRAENLHHFLDAGVLEVHSSAGAWQASPMRYRNQGLSMSSDEHADEYSRYIVDGAAVAEMKGIIERHQAK”, the “total protein half-life in vivo” value runs as follows: under setting [1], 5.29 ± 1.1 h; under setting [11], 5.31 ± 1.4 h; under setting [2], 5.99 ± 2.8 h; under setting [3], 4.73 ± 0.25 h; under setting [4], 4.47 ± 0.33 h; under setting [12], 3.26 ± 0.64 h. For the same sequence, the “total protein half-life in vivo” value is, setting by setting: under setting [5], 6.29 ± 0.61 h; under setting [6], 9.735 ± 0.081 h; under setting [7], 4.35 ± 0.53 h; under setting [8], 6.84 ± 0.21 h; under setting [9], 5.85 ± 0.37 h; under setting [10], 11.8 ± 1.1 h.

For “MNNSRLFRLSRIVIALTAASGMMVNTANAKEEAKAATQYTQQVNQNYAKSLPFSDRQDFDDAQRGFIAPLLDEGILRDANGKVYYRADDYKFDINAAAPETVNPSLWRQSQINGISGLFKVTDKMYQVRGQDISNITFVEGEKGIIVIDPLVTPPAAKAALDLYFQHRPQKPIVAVIYTHSHTDHYGGVKGIISEADVKSGKVQVIAPAGFMDEAISENVLAGNIMSRRALYSYGLLLPHNAQGNVGNGLGVTLATGDPSIIAPTKTIVRTGEKMIIDGLEFDFLMTPGSEAPAEMHFYIPALKALCTAENATHTLHNFYTLRGAKTRDTSKWTEYLNETLDMWGNDAEVLFMPHTWPVWGNKHINDYIGKYRDTIKYIHDQTLHLANQGYTMNEIGDMIKLPPALANNWASRGYYGSVSHNARAVYNFYLGYYDGNPANLHPYGQVEMGKRYVQALGGSARVINLAQEANKQGDYRWSAELLKQVIAANPGDQVAKNLQANNFEQLGYQAESATWRGFYLTGAKELREGVHKFSHGTTGSPDTIRGMSVEMLFDFMAVRLDSAKAAGKNISLNFNMSNGDNLNLTLNDSVLNYRKTLQPQADASFYISREDLHAVLTGQAKMADLVKAKKAKIIGNGAKLEEIIACLDNFDLWVNIVTPN”, the “total protein half-life in vivo” value is 11.5 h under setting [6] and 11.3 h under setting [8].

For the sequence “MKLKNTLLASALLSAMAFSVNAATELTPEQAAAVKPFDRVVVTGRFNAIGEAVKAVSRRADKEGAASFYVVDTSDFGNSGNWRVVADLYKADAEKAEETSNRVINGVVELPKDQAVLIEPFDTVTVQGFYRSQPEVNDAITKAAKAKGAYSFYIVRQIDANQGGNQRITAFIYKKDAKKRIVQSPDVIPADSEAGRAALAAGGEAAKKVEIPGVATTASPSSEVGRFFETQSSKGGRYTVTLPDGTKVEELNKATAAMMVPFDSIKFSGNYGNMTEVSYQVAKRAAKKGAKYYHITRQWQERGNNLTVSADLYK”, the “total protein half-life in vivo” value came to 5.73 ± 0.21 h under setting [1]; 5.99 ± 0.45 h under setting [11]; 5.8 ± 0.2 h under setting [2]; 5.46 ± 0.12 h under setting [3]; 5.116 ± 0.0047 h under setting [4]; 3.13 ± 0.059 h under setting [12]. Further, the “total protein half-life in vivo” value under setting [5] worked out at 5.73 ± 0.11 h; the “total protein half-life in vivo” value under setting [6] is 10.5 ± 0.55 h; the “total protein half-life in vivo” value under setting [7] is 5.47 ± 0.23 h; the “total protein half-life in vivo” value under setting [8] came to 9.68 ± 0.69 h; the “total protein half-life in vivo” value under setting [9] came out at 5.61 ± 0.079 h; the “total protein half-life in vivo” value under setting [10] was found to be 11.1 ± 0.13 h.

As to “MTALALFDLLKPNYALATQVEFTDPEIVAEYITYPSPNGHGEVRGYLVKPAKMSGKTPAVVVVHENRGLNPYIEDVARRVAKAGYIALAPDGLSSVGGYPGNDDKGRELQQQVDPTN [Q7DFU6]”, the “total protein half-life in vivo” value under setting [1] is 2.25 h.
